Blank lines part the entries; values can stand above or below the binder they belong to.
Assays:
[1] = target: T1, recombinant human tumor necrosis factor-α (human, UniProt P01375 77-233); assay: cell-based or functional assay
[2] = target: T1, recombinant human tumor necrosis …; assay: competition ELISA, rhTNF coated on plate, competitor HRP-labeled humira; given in µg/mL
Protocol: The anti-hTNFα human antibody humira marked with horseradish peroxidase (HRP) was used as a reagent. Elisa plates were coated with rhTNF (50 μl of […]), and left overnight at room temperature. The coating solution was discarded, and each well was blocked with 1% skim milk in phosphate buffered saline (PBS) for about 0.5 hours, and washed with PBS containing 0.05% Tween 20. And then a mixture of 50 μl of growth medium and 50 μl of HRP labeled humira was added to each well. Unlabeled humira and antibody-free medium were used as positive and negative controls. […] The wells in which the binding of HRP-labeled humira and rhTNFα was inhibited Kong were amplified and subcloned, followed by analysis of several mouse monoclonal antibodies which show the inhibition effects, and finally hybridoma cells were screened out. The hybridoma cells were intermediate cultured, and the supernatant was taken for purification, and the mouse monoclonal antibody TM2-11-12 and TM2-6-3. The purified mouse monoclonal antibodies TM2-11-12 and TM2-6-3 were tested in competition binding assays. Even at the concentration up to 1 μg/mL, the mouse antibody TM2-6-3 only competed out about 50% of the binding of humira to hTNFα.

mouse TNFα [3] = target: T2, mouse TNFα (mouse, UniProt P06804 80-235); assay: ELISA, TNFα coated on plate, HRP-labeled anti-human Fc detection
T2 sequence (looked up): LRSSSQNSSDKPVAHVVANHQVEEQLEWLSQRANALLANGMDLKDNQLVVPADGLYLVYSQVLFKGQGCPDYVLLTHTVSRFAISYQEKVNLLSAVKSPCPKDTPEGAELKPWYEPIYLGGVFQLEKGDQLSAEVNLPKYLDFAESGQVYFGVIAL
Protocol: (§1) On a plate, respectively coat recombinant human TNFα 5 ng/well, mouse TNFα 25 ng/well, and monkey TNFα 5 ng/well at room temperature, and blocked for 1 h, washed. And then 1.8-fold gradient dilutions of AT132 was added with an initial concentration of 250 ng/mL, and incubated at 25° C. for 2 h, washed, HRP-labeled anti-human Fc antibody added, and incubated at room temperature for 1 h, washed, and the substrate solution added as 100 μl/well, placed in dark at 37° C. for 30 min. In accordance with the order of the added color reagents, 0.2 M H₂SO₄, 50 μl/well was added to terminate the reaction. Within about 5 minutes after termination, OD values were test at 450 nm/630 nm on a microplate reader, and median effective concentrations were obtained by four-parameter fitting. Compare the binding activities of AT132 to different sources of TNFα.

mouse TNFα [4] = target: T2, mouse TNFα; assay: ELISA, TNFα coated on plate (mouse 25 ng/well, human 5 ng/well), HRP-labeled anti-human Fc detection; calculated from coating and sample concentrations
Protocol: as §1

[5] = target: T1, recombinant human tumor necrosis …; assay: SPR, Biacore X100; antibody captured by goat anti-human IgG Fc on CM5 chip, TNFα as analyte
Protocol: AT132 affinity was determined by Biacore X100, and analyzed with Biacore X100 kinetics/affinity analysis software. Using indirect capture method, goat anti-human IgG Fc polyclonal antibody was coupled to the surface of CM5 chip as a capture molecule by using Amine Coupling Kit. By calculation, AT132 and Humira as control were respectively diluted to a a certain concentration to be lately used as ligand, and TNFα as the analyte. Analytes were diluted to 5 concentrations, and each concentration as a cycle. First, using HBS-EP buffer to run for three cycles, designing an analyte concentration of 0 concentration to run for two cycles, and finally, designing a repeat analyte concentration to run for a cycle. The whole process ran 11 cycles, and each cycle can draw a curve. The dynamics/affinity data of the measured antibody and humira were analyzed by Biacore X100 kinetics/affinity analysis software.

monkey TNFα = monkey TNFα (monkey); assay: ELISA, TNFα coated on plate (5 ng/well), HRP-labeled anti-human Fc detection, four-parameter fit
Protocol: as §1

T1 sequence (P01375 77-233 limits assumed): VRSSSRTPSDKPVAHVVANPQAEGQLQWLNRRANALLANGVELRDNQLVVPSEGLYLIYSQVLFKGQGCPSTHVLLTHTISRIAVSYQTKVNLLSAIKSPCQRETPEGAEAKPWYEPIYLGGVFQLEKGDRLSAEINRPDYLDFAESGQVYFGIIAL

B1: AT135 humanized anti-TNFα antibody (antibody, human IgG1, V domains shown)
VH: QVQLVQSGPELKKPGASVKISCKASGYTFTHYGMHWVKQTPGRGLKWVGWINTYTGEPTYDADFQGRFTFSLDTSVSTAFLQINSLKDEDLAVYFCARYDFDGFDYWGQGTTLTVSS
VL: ENVLTQSPPILSASPGERVTMTCRASSSITFNYLHWYQQKSGDSPKVWIYSTSNLVSGVPSRFSGSGSGTSYSLTISSLEAEDAATYYCQQYSDYPYTFGGGTKLEIK
- EC50(ng/mL), neutralization of TNFα killing effect on L929 cell [1]: 50 ng/mL

B2: AT164 humanized anti-TNFα antibody (antibody, human IgG1, V domains shown)
VH: QVQLVQSGPELKKPGASVKISCKASGYTFTHYGMHWVKQTPGRGLKWVGWINTYTGEPTYDADFQGRFTFSLDTSVSTAFLQINSLKDEDLAVYFCARYDFDGFDYWGQGTTLTVSS
VL: ENVLTQSPPIMSASPGERVTMTCRASSSITFNYLHWYQQKSGDSPKVLIYSTSNLVSGVPSRFSGSGSGTSYSLTISSVEAEDAATYYCQQYSDYPYTFGGGTKLEIK
- EC50(ng/mL), neutralization of TNFα killing effect on L929 cell [1]: 45.5 ng/mL

B3: AT151 humanized anti-TNFα antibody (antibody, human IgG1, V domains shown)
VH: QVQLVQSGPELKKPGASVKISCKASGYTFTHYGMHWVKQTPGRGLKWVGWINTYTGEPTYDADFQGRFTFSLETSVSTAFLQINSLKDEDLATYFCARYDFDGFDYWGQGTTLTVSS
VL: ENVLTQSPPILSASPGEEVTMTCRASSSITFNYLHWYQQKSGDSPKVWIYSTSNLVSGVPARFSGSGSGTSYSLTISSLEAEDFATYYCQQYSDYPYTFGGGTKLEIK
- EC50(ng/mL), neutralization of TNFα killing effect on L929 cell [1]: 42.1 ng/mL

B4: AT143 humanized anti-TNFα antibody (antibody, human IgG1, V domains shown)
VH: QVQLVQSGPELKKPGESVKISCKASGYTFTHYGMHWVKQTPGRGLKWVGWINTYTGEPTYDADFQGRFTFSLETSTSTAYLQINSLKDEDLATYFCARYDFDGFDYWGQGTTLTVSS
VL: ENVLTQSPPIMSASPGERVTMTCRASSSITFNYLHWYQQKSGDSPKVLIYSTSNLVSGVPSRFSGSGSGTSYSLTISSVEAEDAATYYCQQYSDYPYTFGGGTKLEIK
- EC50(ng/mL), neutralization of TNFα killing effect on L929 cell [1]: 39.8 ng/mL

B5: mouse monoclonal antibody TM2-11-12 (antibody, mouse IgG1, V domains shown)
VH: QVQLVQSGPELKKPGETVKISCKASGYTFTHYGMHWVKQTPGRSLKWVGWINTYTGEPTYDADFQGRFTFSLETSTSTAFLQINTLKDEDLATYFCARYDFDGFDYWGQGTTLTVSS
VL: ENVLTQSPPIMSASPGEEVTMTCRASSSITFNYLHWYQQKSGDSPKVWIYSTSNLVSGVPARFSGSGSGTSYSLTISSVEAEDAATYYCQQYSDYPYTFGGGTKLEIK
notes: Purified from hybridoma supernatant; The cloning primers are antisense to the mouse IgG1 heavy chain and mouse kappa light chain constant regions; also called anti-hTNFα mouse antibody TM2-11-12
- IC50 [2]: ~0.05 µg/mL

- binding result (mouse TNFα [3]): no binding
- fold lower binding activity than to human TNFα (mouse TNFα [4]): 1000 times lower
- binding activity relative to human TNFα (monkey TNFα): ~50%
B6: AT132 humanized anti-TNFα monoclonal antibody (antibody, human IgG1, V domains shown)
VH: QVQLVQSGPELKKPGASVKISCKASGYTFTHYGMHWVKQTPGRGLKWVGWINTYTGEPTYDADFQGRFTFSLETSVSTAFLQINSLKDEDLATYFCARYDFDGFDYWGQGTTLTVSS
VL: ENVLTQSPPILSASPGERVTMTCRASSSITFNYLHWYQQKSGDSPKVWIYSTSNLVSGVPSRFSGSGSGTSYSLTISSLEAEDAATYYCQQYSDYPYTFGGGTKLEIK
notes: also called E001VH/F001VL
- EC50(ng/mL), neutralization of TNFα killing effect on L929 cell [1]: 20.4 ng/mL
- Ka [5]: 8.4e+10 M⁻¹
- Kd [5]: 0.0119 nM

— patent US20120219547A1 (LIVZON MABPHARM, published 2012)
